± gives the uncertainty stated by the source.
Test: self-splicing fitness, log relative to wild type (ln ratio); higher = more splicing; Tetrahymena group I intron in knt gene, E. coli kanamycin selection, DiMSum; sequences stand for … in CUCUCU…GGAGGGAAAAGUUAUCAGGCAUGCACCUGGUAGCUAGUCUUUAAACCAAUAGAUUGCAUCGGUUUAAAAGGCAAGACCGUCAAAUUGCGGGAAAGGGGUCAACAGCCGUUCAGUACCAAGUCUCAGGGGAAACUUUGAGAUGGCCUUGCAAAGGGUAUGGUAAUAAGCUGACGGACAUGGUCCUAACCACGCAGCCAAGUCCUAAGUCAACAGAUCUUCUGUUGAUAUGGAUGCAGUUCACAGACUAAAUGUCGGUCGGGGAAGAUGUAUUCUUCUCAUAAGAUAUAGUCGGACCUCUCCUUAAUGGGAGCUAGCGGAUGAAGUGAUGCAACACUGGAGCCGCUGGGAACUAAUUUGUAUGCGAAAGUAUAUUGAUUAGUUUUGGAGUACUCGUGGUCG
In short: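 Pooled colonies went to amplicon sequencing on an Illumina HiSeq 2500 after six replicate transformations. The plates were LB agar with 100 μg/mL carbenicillin, 50 μM IPTG and 0.2% rhamnose, with or without 25 μg/mL kanamycin, incubated overnight at 37°C or 30°C. The E. coli BL21(DE3) library had all eight P1ex-region intron nucleotides randomised, the intron placed in the knt kanamycin-resistance gene on pET-22b(+). DiMSum fitness is the error-weighted combination of replicate fold changes, kanamycin against none, normalised to wild type.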

| Sequence | self-splicing fitness (ln) (30 °C) | self-splicing fitness (ln) (37 °C) |
| --- | --- | --- |
| UUGGAGCAAUAUUACGCAGC | -3.49 ± 0.49 | -1.51 ± 0.36 |
| UUCGAGCAAUAUUACGAUUC | -3.5 ± 0.44 | – |
| CCUCAGCAAUAUUACGUGUU | -4.12 ± 0.2 | -3.41 ± 0.25 |
| UUGCAGCAAUAUUACGUCUU | -0.0818 ± 0.069 | 0.289 ± 0.077 |
| UCGAAGCAAUAUUACGGAAC | -3.33 ± 0.38 | -0.421 ± 0.39 |
| UGGUAGCAAUAUUACGCUUA | -0.955 ± 0.18 | -0.553 ± 0.22 |
| GAACAGCAAUAUUACGACGU | -0.688 ± 0.064 | 0.167 ± 0.077 |
| AAGAAGCAAUAUUACGUUGA | -1.76 ± 0.12 | -2.25 ± 0.14 |
| ACGUAGCAAUAUUACGGAGA | -3.36 ± 0.44 | -2.08 ± 0.24 |
| ACCCAGCAAUAUUACGUUCA | -0.957 ± 0.061 | -0.811 ± 0.071 |
| GCAUAGCAAUAUUACGACCC | -0.0863 ± 0.27 | 0.324 ± 0.39 |
| GAAAAGCAAUAUUACGUUUA | -1.32 ± 0.11 | -0.963 ± 0.1 |
| CCGGAGCAAUAUUACGAGAU | -3.24 ± 0.18 | -3.52 ± 0.35 |
| CCAAAGCAAUAUUACGAGCG | -0.496 ± 0.069 | -0.161 ± 0.1 |
| AUAGAGCAAUAUUACGACGC | -0.187 ± 0.14 | -0.765 ± 0.17 |
| UAAGAGCAAUAUUACGUUCC | – | -1.98 ± 0.39 |
| ACAUAGCAAUAUUACGGCAG | -1.29 ± 0.11 | -0.918 ± 0.16 |
| AUCAAGCAAUAUUACGAAGC | -3.81 ± 0.43 | – |
| UCGUAGCAAUAUUACGAUCG | -2.77 ± 0.23 | -0.597 ± 0.18 |
| GGAUAGCAAUAUUACGUUCG | -1.55 ± 0.12 | -1.64 ± 0.14 |
| AUCAAGCAAUAUUACGCGAA | -0.924 ± 0.094 | -1.22 ± 0.12 |
| UGCGAGCAAUAUUACGUAGA | – | -0.382 ± 0.22 |
| AUCAAGCAAUAUUACGAUUG | -4.34 ± 0.3 | -3.41 ± 0.3 |
| CAGAAGCAAUAUUACGAAAG | -1.29 ± 0.11 | -0.392 ± 0.12 |
| AACGAGCAAUAUUACGCAAC | -2.01 ± 0.21 | -1.94 ± 0.44 |

| Sequence | self-splicing fitness (ln) (30 °C) | self-splicing fitness (ln) (37 °C) |
| --- | --- | --- |
| UAGUAGCAAUAUUACGCAUA | -1.58 ± 0.11 | -1.69 ± 0.11 |
| AAGGAGCAAUAUUACGAUGU | -2.12 ± 0.14 | -2.28 ± 0.23 |
| CUAAAGCAAUAUUACGCCAU | -3.34 ± 0.33 | -1.36 ± 0.27 |
| AUAGAGCAAUAUUACGAAGC | -2.7 ± 0.28 | -0.819 ± 0.35 |
| AGAGAGCAAUAUUACGUGCU | – | -1.44 ± 0.28 |
| GUGAAGCAAUAUUACGAGCG | -0.702 ± 0.087 | 0.396 ± 0.12 |
| AAAGAGCAAUAUUACGCCCA | -2.88 ± 0.32 | -2.02 ± 0.28 |
| CGCCAGCAAUAUUACGGGGU | -3.35 ± 0.15 | -2.36 ± 0.17 |
| UUUCAGCAAUAUUACGCGCA | -0.226 ± 0.11 | 0.569 ± 0.12 |
| GAAAAGCAAUAUUACGCACG | -0.543 ± 0.09 | -0.904 ± 0.12 |
| AGACAGCAAUAUUACGAACC | -0.535 ± 0.12 | -0.29 ± 0.19 |
| UCUUAGCAAUAUUACGUAUG | -1.33 ± 0.15 | -0.892 ± 0.18 |
| GGCUAGCAAUAUUACGCUUC | -2.51 ± 0.21 | -1.61 ± 0.26 |
| AGGUAGCAAUAUUACGCAAG | -2.25 ± 0.018 | -1.26 ± 0.034 |
| GGUUAGCAAUAUUACGGUAU | -1.55 ± 0.11 | -0.531 ± 0.11 |
| UCACAGCAAUAUUACGAGCC | -2.07 ± 0.22 | -2.3 ± 0.5 |
| CGGCAGCAAUAUUACGACCC | -0.681 ± 0.19 | 0.752 ± 0.29 |
| GGUUAGCAAUAUUACGCUAU | -4.15 ± 0.46 | -2.72 ± 0.34 |
| UUGGAGCAAUAUUACGUAGU | -1.95 ± 0.25 | -2.6 ± 0.49 |
| UAAAAGCAAUAUUACGUAGA | -2.7 ± 0.12 | -1.45 ± 0.14 |
| UCGAAGCAAUAUUACGAGGG | -2.48 ± 0.15 | -1.62 ± 0.2 |
| CGUAAGCAAUAUUACGACUG | -0.564 ± 0.081 | 0.421 ± 0.13 |
| UCAUAGCAAUAUUACGCGCA | 0.0597 ± 0.12 | 0.225 ± 0.12 |
| UCUUAGCAAUAUUACGUAGG | -1.26 ± 0.11 | 0.0819 ± 0.16 |
| AGUUAGCAAUAUUACGCCGU | -1.15 ± 0.099 | -0.939 ± 0.14 |

| Sequence | self-splicing fitness (ln) (30 °C) | self-splicing fitness (ln) (37 °C) |
| --- | --- | --- |
| GCACAGCAAUAUUACGCUCA | -1.08 ± 0.088 | -0.585 ± 0.1 |
| CGAGAGCAAUAUUACGACGC | -1.91 ± 0.42 | – |
| GGCUAGCAAUAUUACGACAU | -0.413 ± 0.013 | 0.0789 ± 0.033 |
| UGGAAGCAAUAUUACGUGAU | -2.32 ± 0.2 | -1.67 ± 0.22 |
| CUUCAGCAAUAUUACGUCUG | -2.73 ± 0.12 | -1.48 ± 0.16 |
| UCUAAGCAAUAUUACGACUA | -3.07 ± 0.25 | -0.59 ± 0.15 |
| AAUCAGCAAUAUUACGACAA | -0.758 ± 0.12 | 0.189 ± 0.14 |
| GGCGAGCAAUAUUACGUCAA | -3.73 ± 0.34 | -1.71 ± 0.15 |
| ACCGAGCAAUAUUACGUUUG | -2.86 ± 0.13 | -2.19 ± 0.14 |
| UUGUAGCAAUAUUACGCCGA | -0.677 ± 0.23 | -0.628 ± 0.24 |
| CCUAAGCAAUAUUACGGGAG | -4.51 ± 0.24 | -2.93 ± 0.21 |
| UCGAAGCAAUAUUACGGUCC | -4.15 ± 0.42 | -1.95 ± 0.31 |
| AACGAGCAAUAUUACGGCAC | -2.99 ± 0.22 | -1.89 ± 0.29 |
| GAGCAGCAAUAUUACGUUCA | -1.38 ± 0.13 | -0.931 ± 0.13 |
| UGCGAGCAAUAUUACGGAGG | – | -1.17 ± 0.18 |
| CUUGAGCAAUAUUACGUUUU | -3.92 ± 0.28 | -3.44 ± 0.3 |
| UGUGAGCAAUAUUACGGAUU | – | -1.59 ± 0.34 |
| GUUAAGCAAUAUUACGACCA | -0.467 ± 0.21 | -1.67 ± 0.17 |
| ACACAGCAAUAUUACGGUCC | -1.31 ± 0.073 | -0.868 ± 0.089 |
| AGGUAGCAAUAUUACGUAUU | -2.78 ± 0.018 | -1.45 ± 0.035 |
| CCGUAGCAAUAUUACGCGGG | -4.02 ± 0.33 | -3.61 ± 0.39 |
| CUCGAGCAAUAUUACGUACG | -3.49 ± 0.22 | -2.86 ± 0.28 |
| GCAUAGCAAUAUUACGGCAA | -1.49 ± 0.18 | -0.271 ± 0.17 |
| AGGUAGCAAUAUUACGGCAC | -0.781 ± 0.017 | -0.277 ± 0.035 |
| GGUCAGCAAUAUUACGGUAG | -2.15 ± 0.18 | -0.967 ± 0.19 |

| Sequence | self-splicing fitness (ln) (30 °C) | self-splicing fitness (ln) (37 °C) |
| --- | --- | --- |
| GUGCAGCAAUAUUACGAUAU | -0.385 ± 0.091 | -0.244 ± 0.12 |
| UCGCAGCAAUAUUACGUAGU | -2.58 ± 0.13 | -2.85 ± 0.26 |
| GCAUAGCAAUAUUACGAACC | -1.45 ± 0.089 | 0.452 ± 0.1 |
| GGACAGCAAUAUUACGUGCU | -0.778 ± 0.11 | -0.685 ± 0.13 |
| UUAUAGCAAUAUUACGCCUG | -0.833 ± 0.4 | -0.933 ± 0.37 |
| UUGGAGCAAUAUUACGGUGC | -1.64 ± 0.31 | – |
| CAUUAGCAAUAUUACGUACG | -0.341 ± 0.09 | 0.593 ± 0.12 |
| AACGAGCAAUAUUACGCUAA | -3.19 ± 0.35 | -2.33 ± 0.16 |
| GCCGAGCAAUAUUACGGGCC | -3.59 ± 0.32 | -1.99 ± 0.41 |
| GAUUAGCAAUAUUACGCCCU | -0.409 ± 0.49 | – |
| UACAAGCAAUAUUACGAUUU | -1.76 ± 0.066 | -0.754 ± 0.084 |
| AUUUAGCAAUAUUACGUCCA | -0.944 ± 0.15 | -0.558 ± 0.27 |
| UACAAGCAAUAUUACGUAAU | -2.72 ± 0.18 | -0.0213 ± 0.15 |
| AUGAAGCAAUAUUACGAACC | 0.0578 ± 0.14 | 0.124 ± 0.17 |
| GCGUAGCAAUAUUACGUUAC | -2.56 ± 0.23 | -2.37 ± 0.32 |
| UUACAGCAAUAUUACGCGAC | -2.37 ± 0.17 | -1.41 ± 0.18 |
| CCUGAGCAAUAUUACGCACC | – | -1.74 ± 0.4 |
| UGCUAGCAAUAUUACGCAAC | -3.07 ± 0.28 | -1.98 ± 0.2 |
| UCUAAGCAAUAUUACGGCCA | -1.21 ± 0.22 | -1.17 ± 0.21 |
| AGUGAGCAAUAUUACGUUUA | -3.37 ± 0.45 | -2.04 ± 0.22 |
| AAAAAGCAAUAUUACGCAGC | -1.99 ± 0.13 | -2.19 ± 0.19 |
| ACCCAGCAAUAUUACGAUUC | -1.71 ± 0.046 | -0.7 ± 0.063 |
| CAAUAGCAAUAUUACGAAUC | -2.66 ± 0.38 | -0.0469 ± 0.27 |

— the supplement of paper PMC7877785
